According to the DeepSol protein solubility set:

Test: soluble on expression in E. coli; label from the status in PepcDB or PDB records

Sequence: MPYIIPTFEEIRAAILRDVKNLLPDADTGPDSDAFIRASSTASAVYGLYQHQLWMARQILPDTADTAYLESHAALRGITRKPATKATGTLTLTGTPGAAVPAGTEARHIATGATFRTTATVTLAENGTASAPCEASVAGAMPDYTAETVLLTAPPPGVQSTASLALTGGTDTETDAELLERLLFHFRNPPGGGNRYDYKRWALEVPGVTGAWVYPLRRGLGTVDVAVLSAGGLPTPELLAAAQARIDERRPVACKDARVLAPTPLAVDVRVRVRLAGTTLPVVTTQVREALAAHFGGYEPGGQVVRSRLEAIISGIPGVADRDLTAPSANVQAVVDASRVEWPRLGTVTVEAMLEHHHHHH
- soluble on expression in E. coli: soluble

Sequence: MAFVLNGQDLDALATGGCFFGSGGGGTLSSAKGLLRHFNKGAYYPADQVTVVTVDEAVSAAEGDAVMVAYMGSPQAINGSSYPEGPVGAAENIQGKLATQGRKLAYIVPPESGALGFVVACLVAVRLGLKVIDADGAGRAVPSLPMLTYAAAAISPRPAVLVSQEGLQVELDVTPRDGENGSVTHQQDVAAIIENMMRPIVAAAQFKEFGGLAMWVMAPEQFSAALPIHGTLSRAVKTGHALAAGELDTAARMQDFLKRESGLLARPIFTGQFKAVEVSTGAGFDVGKMHIVSAEATCTVVYQNESMLAWDSRAAAPLVTAPDSLAYFVSGPGQSVYSNGDAVLADGTLSPSLKDRTVTLFAWQADAALRTPDGQILASFMGLLADMGYLGPYISVEAMQLATAGESRPLEHHHHHH
- soluble on expression in E. coli: not soluble

Sequence: MVSPLKTRCCSPSSQQQASEAREIEQPSTVWELDFYSRPVYGKDNKRIWELIVVDESFLLCHVESVPNDMINSAELRKRVERLLEQVTVKPKVVKFSRMPMFNMISLALKDLGFEVKPSRRTYRLYHVLRDREANIYSKMPGYRSENTLSTSYLYSTERLPDALRGEKFAFCTADYSFLYELQSSDTIPYCDIFNTGDSILLEKELPGIIVYSERADSLASWTAGAEVSFIKFREEELELVLECGINSHYRLAKIAEDHRLVEEAKTFEQMKWHMKGFHFYAIQSLKETSGTSHIKGLWLLNDFMEQ
- soluble on expression in E. coli: not soluble

Sequence: MTIIKLERRDVRLLLLYEFRLGHSAMEAERNICGAMGEGALSYNTAKSWFQKFKNGDFSLEEIERSGRPVELNEEDLVKLVEEEPRLSLREMEEKLECCHSTIPRHLGRLGFTSKLGTWVPHELSASQKLTRVNVCTQLLTFRRKFDWLNNLVTGDEKWVLYVNHSRKRQWLPIGEKGIPTPKPDLHPKKIMICV
- soluble on expression in E. coli: soluble

Sequence: MADDKDVLRDVWFGRIPACFTLSPDETTEREAEPYYLLLPRVSYLTLVTDKVKKHFLKVMKAEDVEEMWFEHEGTPLKWHYPIGVLFDLHASNSALPWNVTVHFKNFPEQDLLHCSTNSVIEAHFMSCIKEADALKHKGQVINDMQKKDHKQLWMGLQNDKFDQFWAMNRKLMEYPTEEGGFRYIPFRIYQTMSDRPFIQTLFRPVSSEGQALTLGDLLKELFPAAIEDEPKKFQVMIHGIEPLLETPIQWLSEHLSHPDNFLHISIIPAPSD
- soluble on expression in E. coli: not soluble

Sequence: MSPETMFFQDEDSRNLATNFIANYLKLWDANRSELMILYQNESQFSMQVDSSHPHLIESGNSGYSGSTDFGYYLNNSRNLTRVSSIKARMAKLSIGQEQIYKSFQQLPKTRHDIIATPELFSMEVYKFPTLNGIMITLHGSFDEVAQPEVDGSASSAPSGPRGGSRYHSGPKHKRIPLSKKSFDRTFVVIPGPNGSMIVASDTLLIRPYTSDFPWKVQK
- soluble on expression in E. coli: soluble

Sequence: MGSDKIHHHHHHMLYADENSFDIGAKITKTKPVLLPIGAVEAHGPHLPLGTDNILASEYSAKIAAETSGFVLPVLPYGQVWSLQDFPGSLTLSNETVTKVVVEIGESLYKQGFRLFVPVSGHLGNMAALKDAARELYAKYPDMVILHIFYPNIQKLAMDVREGNANHHTYIHACEIETSLMLYLSPENADMSRAIDDPPILPIDADFTPTPWQNFTKTAVLGEATLATAEKGEYLIEKTLKTCVELIKLEQEKIRKSTEME
- soluble on expression in E. coli: not soluble

Sequence: MSVVLGENELVIRGCILYEVLNKKPIQESYENFCRNVGNDVMSYNDFDFWFYRFYNGNHDLHYDRSADPASPLLSNMPLNIIDEVLNRMEILNLLVLMKVSRNFRKVVQNMKMVFDCIEVDFDEHLAITYNSRHKIKYRPNDTAQYSPFRQEPTCTCGRRIRTSDEDNRKEFFVTDEDYIELGVKDLKLIMENQNVQLKKFQFSNGSNQDTQKKFIDRAEIAFKSAKSSTRTVEAHYNSLAEIAQLLPIFHAGKLEEINFKQGARTDGYEQLVGLEQWKNARKFDGFWSLNVPIEHCLHFECFKDHFVRFKEEDAMKLRYMLDRSTNFGYAEITIDPMNVSLLKRAFDVNNDNKFEFVYQSPDNGSFEVHCALRVLYITKSGYKFKYNNKSASTFYKPPPIPAPPALFLRDYQFFDPRPRMPTDRSRYRPF
- soluble on expression in E. coli: not soluble

Sequence: MEIKEFSACNLESLRKLYLDSRRDSFPWLKADSFRIEDFDRDSQGERIWLSEVLGNVVGFISIWEPDNFIHHLYVATEYQGQGVGSMLLNGAKMKYGNLSLKCMVQNQKALNFYSSQGFEIVSQVDDELGGYYYMSFSAQT
- soluble on expression in E. coli: not soluble

Sequence: MPSMAEIYVKELRERDPATVDTLFLDNAEDGQIGGLTDQLINLEMLSMVKCGLTTLAGFPTLPALTYLDISDNQLGDNASFDVLVKNAPDLKKITLASNKLSLDNLRCLKVLPNLFELDLSNNPSLGLLEDYREKMFEMIPSLKILDGCDVDGEEVEEEFAGEGGEDSEEGSGDEDGPGLSYLEKSQFSDDETDDYAPEGGDAEPRGTKRGASDNGEEPDNKKAAGDDE
- soluble on expression in E. coli: soluble

Sequence: MEFTLLGWPEDGHRLRLDYKQFAYAGKFVMTSTGKAVIGDDGVVAAAAFDADRTDPDTLCVRYITVRQDRQGDRLGARLLRFVRERATERGFEHVSIGVNNPFSYQAAYRAGFCFSGAESGMAELDLVWPGDRSTERYQAGLDLFRERDLSPDEESFLAAKADADPPTVLNEWAEQPSARTD
- soluble on expression in E. coli: not soluble

Sequence: MPPKKDPKGGKAPPSKKKEGSGGGKAKKKKWSKGKVRDKLNNMVLFDQATYDKLYKEVITYKLITPSVVSERLKVRASLAKAGLKELQAKGLVKCVVHHHGQVVYTRATKEADVIVE
- soluble on expression in E. coli: soluble

Sequence: MTLTQIHALLAVLEYGGFTEASKRLYMTQSAVSQAISALEEELGVDILIRERRKEIELTAAGSRIVRHLRAIQRDVNAVKEIAEQEKKNPARTLRIGCFPSACACILPGVIRYFESHHPNVKIIPYEENSTAIIDSLQDGSIDAGFVPFPVNGMYCVPIYRDKFTVVVPENHPLAANSTVTVEELMDEPLIVSKGRYELSIMALFKEKGIEPIFKYEFNHPDTALNFIRQGLGIALLPELTLKATTGKLCSVALEPTFYRQISLLAKEPPVEGSPLFLLQKCMETLTDEGLL
- soluble on expression in E. coli: not soluble

Sequence: SLMVPVEIRWQQGGSKVYVTGSFTKWRKMIGLIPDSDNNGSFHVKLRLLPGTHRFRFIVDNELRVSDFLPTATDQMGNFVNYIEVRQPEKNPTNEKIRSKEADSMRPPTSDRSSIALQIGKDPDDFGDGYTRFHEDLSPRPPLEYTTDIPAVFTDPSVMERYYYTLDRQQSNTDTSWLTPPQLPPQLENVILNKYYATQDQFNENNSGALPIPNHVVLNHLVTSSIKHNTLCVASIVRYKQKYVTQILYTPI
- soluble on expression in E. coli: soluble

Sequence: MYSIIRPFLLHAVTSVHAGSGSEIGLVDLPIQREKHTGFPKIESSSLKGALRYHMTQALPDETNKLELIFGADKGQESVTQASAIALSDARVLLFPVKSLRGVFAWITCPHVLERWNQEMSVHQEMKGKGEGFQSLPVPGPNTVSADRLIVADGRIILEEYTFPVTVSPEAKQLAEQLSAIIGESSRLRVTDRLVILSDDDFTDFVKLSTEVNARIRISPETGTVDSGALWYEENVPPETFFYSFLYIGHVRGKGVDGLATAEEIERYLVDERKFPSVFQLGGNSTLGRGMMRTIWL
- soluble on expression in E. coli: not soluble

Sequence: HGSMEVPVSRAYGCFQEGPEAPISSACREAKRVGGAQAMYDWNAINQTPAGDNHQALVPDGALCGGGKAEFKGFNLARSDWRATSIVPDAKGDYEFVFQATAPHATKYFRLYVTRDGWNPSTPLKWSDLTLFGAYNGNPPLDVGNRYRMTMRLPAGKTGRHIIYSVWKRSDSEEAFYACSDVSFGH
- soluble on expression in E. coli: not soluble

Sequence: MDSPIINEQFWDALFFNGTMPWDRSQTPNELKHYLKRIADKTHSVFIPGCGAAYEVSHFVDCGHDVIAMDYSAEAVNLAKSQLGQHQDKVMLGDVFNADFSREFDVIYERAFLAALPREIWGDYFAMIERLLPSNGLLVGYFVISDDYRSRFPPFCLRSGEIEQKLEANFHLIESTPVTDSVDVFKGKEQWMVWQKLEHHHHHH
- soluble on expression in E. coli: not soluble

Sequence: MGSDKIHHHHHHMTPTIVFDGGYTLWSAGDDAPLAFMTDGLARRLGTPVFKAFVRHPHASFDRRFGVQTLPNLEHESKAGAAGRWFRGLNFTDPRGELAAVADTVAQADLLIMGAGNFITEVGMDVLRGHLPRFCTMALMAQMAGTPYMLFGLSANVLHNPWAVRAAGWLLRGAAAVTFRERMAVENLRACGVALPEHTLLPDAALGAPRAPQGRGDEILRQEQIPSRTAGLRLALAVRDLSWMGSHAAALYERHQTELINLWCARKDNDVLLVPQCCYHADSGITDDRVLGRTLRGRSRFSDKVHVIEGCYHYDDIESLYTQADCAVATRLHGSVFAARMGIPVVGLAYEDKVRGFFGQLQAEDQCLPWDAPATDILALLDSLMLRVQAVRDHMLHRIEQLQQQLAGYIDIAAALAAPAGDHTP
- soluble on expression in E. coli: not soluble

Sequence: MGSDKIHHHHHHMELKILVTGGNVFVPGRLNAHFSTVVYLEHKDRRIIIDPGNLSSMDELEEKFSELGISPDDITDVLFTHVHLDHIFNSVLFENATFYVHEVYKTKNYLSFGTIVGRIYSKVISSWKNVVLLKGEESLFDEKVKVFHTPWHAREHLSFLLDTENAGRVLITGDITPNRLSYYDIIKGYGSVQVKNFLDRVGRIDLLVFPHDAPLKPEVKK
- soluble on expression in E. coli: soluble

Sequence: MGSDKIHHHHHHMNILITGMAGFIGHAVAKRLAAEGHDIVGIDNLNDYYDVSLKQARLDDLAAWPNVRFERLDLADRAGMERLFADTRFERVIHLAAQAGVRYSLDNPHVYAQSNLVGHLNVLEGCRHQQVPHLIYASSSSVYGQNAQVPFSTADAVDHPISLYAATKKANELMTHSYSHLYGIPATGLRFFTVYGPWGRPDMAMFKFTRAILADEPLPVFNHGDLSRDFTYIDDIVEGVVRIMQAIPEADPDSPGASPDQSTAPFALYNIGHGSPVALMDFVHALERATGRTARCDFKPMQPGDVPRTWADTDALFEKVGYRPQVGVDEGVARFVEWYRSFHGI
- soluble on expression in E. coli: not soluble

Sequence: AASQSTPWGIKAIYNNSNLTSTSGGAGINIAVLDTGVNTNHPDLSNNVEQCKDFTVGTNFTDNSCTDRQGHGTHVAGSALANGGTGSGVYGVAPEADLWAYKVLGDDGSGYADDIAEAIRHAGDQATALNTKVVINMSLGSSGESSLITNAVDYAYDKGVLIIAAAGNSGPKPGSIGYPGALVNAVAVAALENTIQNGTYRVADFSSRGHKRTAGDYVIQKGDVEISAPGAAVYSTWFDGGYATISGTSMASPHAAGLAAKIWAQSPAASNVDVRGELQTRASVNDILSGNSAGSGDDIASGFGFAKVQ
- soluble on expression in E. coli: soluble

Sequence: MLAHLEELKKNIEGDLYFDLTMRTLYATDASVYRELPLAVARPKHKQDVQKIIAFANKYKIGIIPRTAGTSLAGQVVGKGIIVDVSKYFTE
- soluble on expression in E. coli: not soluble

Sequence: MEDFKKIVNNIRLKDTFDFKLAAFPNQNYDQLLPSQIYKNYYQGIEIQQHKYQNELDIKIINFLYPDGDFGSANKNGTLKLSLMLTDKKNNQVYYKLLEVSGFKSNPYGVDLEHHHHHH
- soluble on expression in E. coli: not soluble

Sequence: MSLAEVGSKSVLFVCLGNICRSPIAEAVFRKLVTDEKVSDNWAIDSSAVSDWNVGRPPDPRAVSCLRNHGISTAHKARQITKEDFATFDYILCMDESNLRDLNRKSNQVKNCKAKIELLGSYDPQKQLIIEDPYYGNDSDFEVVYQQCLRCCKAFLEKTYEGHHHHHH
- soluble on expression in E. coli: soluble
